Experimental findings from publication PMC2988878 (Nature structural & molecular biology, 2010) are described below.

The labels stand for the following.
T1: Mpa residues 1-96 (Mpa1-96) (Mycobacterium tuberculosis, UniProt P9WQN5 1-96)
T1 sequence: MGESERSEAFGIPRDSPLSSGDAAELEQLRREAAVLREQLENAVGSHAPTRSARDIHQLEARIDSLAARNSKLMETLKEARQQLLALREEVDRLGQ

B1: N-terminal truncated prokaryotic ubiquitin-like protein, Pup21-64-GGE with an N-terminal His6-tag (domain or fragment)
chain: {His6‑tag}-STAAGQERREKLTEETDDLLDEIDDVLEENAEDFVRAYVQKGGE
modifications: not fully specified
B2: Mpa coiled-coil domain, residues 46-96 (Mpa46-96) (domain or fragment)
chain: SHAPTRSARDIHQLEARIDSLAARNSKLMETLKEARQQLLALREEVDRLGQ
B3: Full-length prokaryotic ubiquitin-like protein, Pup1-64-GGQ with a C-terminal non-cleavable His6-tag (natural protein)
chain: MAQEQTKRGGGGGDDDDIAGSTAAGQERREKLTEETDDLLDEIDDVLEENAEDFVRAYVQKGGQ

Where no end group is shown, it is not given here.

Experiment in all cases: […]
For assay [1], the target named is B2.
In assay [2] the target is B3.
Assay [3] has as its target T1, Mpa residues 1-96 (Mpa1-96).

Consider B1, for which, in assay [1], the binding result is “binds”.

As for B2, the binding result in assay [2] is “binds”.

B3: in assay [3], the binding result is “binds”.
